How the values were obtained:
IFN-αD = target: T1, IFN-αD (human, UniProt A0A087WWS6 25-190); assay: ProteOn
T1 construct: also called Val114 IFN-α1
T1 chain: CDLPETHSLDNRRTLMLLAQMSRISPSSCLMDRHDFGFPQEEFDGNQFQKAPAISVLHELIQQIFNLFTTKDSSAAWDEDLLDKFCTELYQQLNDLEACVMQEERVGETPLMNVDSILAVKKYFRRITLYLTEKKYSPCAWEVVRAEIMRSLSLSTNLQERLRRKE

IFN-αG [1] = target: T2, IFN-αG (human, UniProt P01569 24-189); assay: ProteOn
T2 construct: also called IFN-α5

Cyno IFN-ω = target: T3, Cyno IFN-ω (cynomolgus, UniProt P05000 24-195 (human entry)); assay: ProteOn
T3 construct: also called cynomolgus IFN-ω
T3 chain: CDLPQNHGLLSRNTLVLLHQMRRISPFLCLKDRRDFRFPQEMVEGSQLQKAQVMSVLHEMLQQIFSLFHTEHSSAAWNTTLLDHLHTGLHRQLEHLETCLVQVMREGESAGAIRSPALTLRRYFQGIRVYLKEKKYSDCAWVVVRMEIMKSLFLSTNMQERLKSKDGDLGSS

IFN-β = IFN-β (human, UniProt P01574 22-187); assay: ProteOn
IFN-αC [2] = target: T4, IFN-αC (human, UniProt P01566 24-189); assay: ProteOn
T4 construct: also called IFN-α10

IFN-αJ1 [3] = target: T5, IFN-αJ1 (human, UniProt P01567 24-189); assay: ProteOn
T5 construct: also called IFN-α7

IFN-α4a [4] = target: T6, IFN-α4a (human, UniProt P05014 24-189); assay: ProteOn
T6 construct: also called IFN-αM1

IFN-αK [5] = target: T7, IFN-αK (human, UniProt P05013 24-189); assay: ProteOn
T7 construct: also called IFN-α6

IFN-αF [6] = target: T8, IFN-αF (human, UniProt P01568 24-189); assay: ProteOn
T8 construct: also called IFN-α21
T8 chain: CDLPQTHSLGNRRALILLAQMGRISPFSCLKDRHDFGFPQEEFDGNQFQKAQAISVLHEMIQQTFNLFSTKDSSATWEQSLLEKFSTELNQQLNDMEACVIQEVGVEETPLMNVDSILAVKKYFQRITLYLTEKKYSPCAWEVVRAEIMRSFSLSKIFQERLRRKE

IFN-αH2 [7] = target: T9, IFN-αH2 (human, UniProt P01570 24-189); assay: ProteOn
T9 construct: also called IFN-α14

Chimp IFN-ω = target: T10, Chimp IFN-ω (chimpanzee, UniProt P05000 24-195 (human entry)); assay: ProteOn
T10 construct: also called chimpanzee IFN-ω

IFN-αWA [8] = target: T11, IFN-αWA (human, UniProt P05015 24-189); assay: ProteOn
T11 construct: also called IFN-α16

IFN-α1 = target: T12, IFN-α1 (human, UniProt A0A087WWS6 25-190); assay: ProteOn
T12 construct: also called Ala114 IFN-αD

human IFN-ω = human IFN-ω (human, UniProt P05000 24-195); assay: cell-based or functional assay
IFN-αG [9] = target: T2, IFN-αG; assay: cell-based or functional assay
IFN-αC [10] = target: T4, IFN-αC; assay: cell-based or functional assay
IFN-αJ1 [11] = target: T5, IFN-αJ1; assay: cell-based or functional assay
IFN-α4a [12] = target: T6, IFN-α4a; assay: cell-based or functional assay
IFN-αK [13] = target: T7, IFN-αK; assay: cell-based or functional assay
IFN-αF [14] = target: T8, IFN-αF; assay: cell-based or functional assay
IFN-αH2 [15] = target: T9, IFN-αH2; assay: cell-based or functional assay
IFN-αWA [16] = target: T11, IFN-αWA; assay: cell-based or functional assay

B1: IFWM371 (antibody, IgG1, V domains shown)
VH: EVQLVQSGAEVKKPGESLKISCKGSGYSFTSYWIGWVRQMPGKGLEWMGIIDPSDSDTRYSPSFQGQVTISADKSISTAYLQWSSLKASDTAMYYCARHPGLNWAPDFDYWGQGTLVTVSS
VL: not shown
notes: Fab cloned into IgG1/kappa background; also called IFWB351; parental mAb
- binding result (IFN-αD): no binding
- Kd (IFN-αG [1]): 1.11 nM
- Kd (Cyno IFN-ω): 0.887 nM
- binding result (IFN-β): no binding
- Kd (IFN-αC [2]): 1.67 nM
- Kd (IFN-αJ1 [3]): 10.8 nM
- Kd (IFN-α4a [4]): 5.39 nM
- Kd (IFN-αK [5]): 0.245 nM
- Kd (IFN-αF [6]): 5.31 nM
- Kd (IFN-αH2 [7]): 0.179 nM
- Kd (Chimp IFN-ω): 1.08 nM
- Kd (IFN-αWA [8]): 3.18 nM
- binding result (IFN-α1): no binding
- IC50 (nM), ISRE reporter gene assay (human IFN-ω): 43.9 nM
- IC50 (nM), ISRE reporter gene assay (IFN-αG [9]): 12.9 nM
- IC50 (nM), ISRE reporter gene assay (IFN-αC [10]): 53.9 nM
- IC50 (nM), ISRE reporter gene assay (IFN-αJ1 [11]): 35.7 nM
- IC50 (nM), ISRE reporter gene assay (IFN-α4a [12]): 32.8 nM
- IC50 (nM), ISRE reporter gene assay (IFN-αK [13]): 7.3 nM
- IC50 (nM), ISRE reporter gene assay (IFN-αF [14]): 16 nM
- IC50 (nM), ISRE reporter gene assay (IFN-αH2 [15]): 9.6 nM
- IC50 (nM), ISRE reporter gene assay (IFN-αWA [16]): 74.2 nM

Source: patent US20150368338A1 (Janssen / Centocor, published 2015)
